These results are taken from patent US5650301A, “Hirudin HV2 having a SN7LYS substitution, method of making, and method of use” (Transgene S.A., priority 1986, dated 1997).

Series [1] deals with thrombosis by blood stasis in rabbits. Put plainly: Model of thrombosis by blood stasis in rabbits. The series is classed as in vivo. As to conditions: RABBIT i.v. perfusion. How it is done:
(§1) e) The antithrombotic activity of the two variants of hirudin and of standard heparin is studied in Wessler's rabbit and rat model, with thromboplastin as thrombogenic agent, and in the model of stasis in rabbits (Fareed). The compounds are administered by continuous perfusion in rabbits and by i.v. bolus in rats.
Male New Zealand rabbits weighing 2.5 to 3 kg were used in this study. After intravenous anesthesia with pentobarbital sodium (30 mg/kg), the left carotid was cannulated and the two jugular veins were isolated; two slack ligatures were placed on each of them, at a distance of 2.5 cm from one another. The rabbits then received either physiological saline or solutions of hirudin or heparin in continuous perfusion for 30 minutes, at a flow rate of 2.5 ml/hour. Two minutes before the end of perfusion, arterial blood samples were drawn in order to determine the plasma levels of the anticoagulants. At the same time as the perfusion was stopped, stasis was established by tightening the four ligatures (first the proximal and then the distal). The stasis was maintained for 2 hours, the jugulars were then opened and the thrombi extracted, rinsed in physiological saline and weighed after blotting with filter paper.

In another series the test system is rat and rabbit plasma. As to the kind of experiment: Anticoagulant activity in vitro in plasma, prolongation of the thrombin time. As to conditions: higher concentrations, compared with rHV2. How it is done: (§2) b) The anticoagulant activity of the two hirudins is compared in vitro in rat and rabbit plasma in terms of prolongation of the thrombin time, and the anti-IIa effect is measured chromogenically.

The subject of series [2] is venous thrombosis in rabbits. As to the kind of experiment: Wessler's model in rabbits (thromboplastin as thrombogenic agent). Type of series: in vivo, rabbit. The method, then:
as §1
Male New Zealand rabbits weighing 2.5 to 3 kg were used in this study. After anesthesia by intravenous injection of pentobarbital sodium (30 mg/kg), the left carotid was cannulated and the two jugular veins were isolated; two slack ligatures were placed on each of them at a distance of 2.5 cm from one another. The rabbits then received either physiological saline or solutions of hirudin or heparin in continuous perfusion for 30 minutes at a flow rate of 2.5 ml/hour. Two minutes before the end of the perfusion, arterial blood samples were drawn in order to determine the plasma levels of the anti-coagulants. One minute before the end of the perfusion, human thromboplastin (Manchester Comparative Reagents Ltd), standardized according to M. Buchanan's procedure, was injected at a dose of 600 ug/kg during exactly 30 seconds into the aorta via the carotid. Thirty seconds later the perfusion was stopped and blood stasis was produced by tightening the ligatures on the two venous segments for 15 minutes. […]

The target in series [3] is T1, thrombin (Homo sapiens, UniProt P00734). Put plainly: Specific antithrombin activity, inhibition of proteolytic activity of thrombin on chromozyme. Details: The specific antithrombin activity (human and bovine thrombin) of the two recombinant hirudins. Type of series: biochemical. The method, then:
(§3) a) The specific antithrombin activity (human and bovine thrombin) of the two recombinant hirudins in physiological saline is determined on the basis of the inhibition of the proteolytic activity of thrombin on chromozyme.
(§4) a) For a preparation of stock solution at a concentration of 1 mg/ml, the specific antithrombin activity of the two variants of hirudin with respect to human and bovine thrombins is expressed in Table 1 below: […]

A further series deals with T2, bovine thrombin (Bos taurus, UniProt P00735).
T2 construct: The specific antithrombin activity (human and bovine thrombin) of the two recombinant hirudins
The series is described as above. Type of series: biochemical. The settings on record: stock solution 1 mg/ml in physiological saline. How it is done:
as §3, §4

The target in series [4] is T1, thrombin. As to the kind of experiment: Inhibitory effect of crude yeast culture supernatants on thrombin activity (chromozyme TH). Type of series: biochemical. As to conditions: yeast culture supernatants after 48 h, compared with native HV2 (FIG. 2). The method, then:
20 ml of culture (YNBG+0.5% casamino acids) at OD660 0.02 were seeded with each strain. After 48 h of agitation at 30° C. the cultures were centrifuged (5000 rpm, 5 min) and the supernatants assayed. A culture of TGY1sp4 pTG881 (plasmid not carrying the coding sequence for HV2) was used as a control.
The activity of the crude supernatants is measured in terms of their inhibitory effect with respect to thrombin activity (proteolytic activity on a synthetic substrate, chromozyme TH--Boehringer Mannheim).

The test system of series [5] is venous thrombosis in rats. As to the kind of experiment: Wessler's model in rats. The series is classed as in vivo. As to conditions: RAT i.v. bolus, -5 min 40 s before stasis. The method, then:
as §1
Male (CD-COBS) Sprague-Dawley rats weighing approximately 300 g were used. […] Two flexible ligatures were positioned 0.7 cm apart.
The test products, diluted in physiological saline, were injected in an i.v. bolus at 1 ml/kg, 5 min 40 s or 1 min (heparin) before the production of venous stasis. Forty seconds before this stasis, a thrombogenic agent (rabbit thromboplastin, E. Dade) was injected at a dose of 25 mg/ml/kg into the vein of the penis in the space of 30 seconds, measured very exactly. Ten seconds after the end of the injection, stasis was established by tightening the two ligatures, first the proximal and then the distal. The stasis was maintained for 10 minutes, and the thrombus was then removed, immersed in a 0.38% strength citrate solution, dried with general-purpose absorbent paper and weighed on the following day after drying for one hour at […].

Series [6] relates to residual thrombin in the rat and rabbit plasma. Put plainly: Anti-IIa effect in plasma, residual thrombin by chromogenic substrate. Type of series: biochemical. As to conditions: above 60 ATU/ml, compared with rHV2. How it is done:
as §2

A further series concerns hemorrhage in rabbits. The settings on record: rabbit, in vivo.
In the next series the test system is bleeding time in rats. As to conditions: rat, in vivo.
For series [7], the target named is T1, thrombin. Put plainly: Kinetics of inhibition of human thrombin by purified hirudin variants (chromozyme PL). The series is classed as biochemical. Details: The specific antithrombin activity (human and bovine thrombin) of the two recombinant hirudins. The source says:
To study the kinetics of inhibition of thrombin by these variants, the theory of high affinity inhibitors, as described in J. W. WILLIAMS and J. F. MORRISON Methods in Enzymology 63 pp. 437-467, 1979, is used, since hirudin is a reversible inhibitor of thrombin.
The variants of hirudin used are purified to 95% and the Sigma pure human thrombin has a percentage activity, measured by titration of the active site, which is above 92%. The concentration of human thrombin is the same for all the measurements, namely 5.5×10^-9 M. The medium is an 0.05M sodium PIPES buffer, pH 7.9, 0.18M KCl and 0.1% PEG at 37° C. The thrombin substrate is Boehringer chromozyme PL. A preincubation time of 2 minutes is observed for the thrombin and hirudin, and the reaction is then initiated with the substrate.
The following table summarizes the values determined experimentally for the quantity of hirudin required for a 95% inhibition of the same quantity of human thrombin (5.5×10^-9 M).

B1: ILE THR TYR THRASP CYS THR GLU SER GLY GLN ASN LEU CYS LEU CYS GLU GLY SER ASN VAL CYS GLY LYS GLY ASN LYS CYS ILE LEU GLY SER ASN GLY LYS GLY ASN GLN CYS VAL THR GLY GLU GLY THR PRO LYS PRO GLU SER … (protein)
chain: ITYTDCTESGQNLCLCEGSNVCGKGNKCILGSNGKGNQCVTGEGTPKPESHNNGDFEEIPEEYLQ
modifications: printed: ILE THR TYR THRASP CYS THR GLU SER GLY GLN ASN LEU CYS LEU CYS GLU GLY SER ASN VAL CYS GLY LYS GLY ASN LYS CYS ILE LEU GLY SER ASN GLY LYS GLY ASN GLN CYS VAL THR GLY GLU GLY THR PRO LYS PRO GLU SER HIS ASN ASN GLY ASP PHE GLU GLU ILE PRO GLU GLU TYR LEU GLN
notes: recombinant hirudin HV2 variant in which the Asn^47 is replaced by a Lys, produced in yeast
Consider B1, for which the “Antithrombotic effects, STASIS” value in [1] came out at 47 µg/kg/h. The “anticoagulant activity determined in terms of the thrombin time” value with rat and rabbit plasma was “markedly superior”. Also, the “Antithrombotic effects, WESSLER” value in series [2] (RABBIT i.v. perfusion) amounted to 20 µg/kg/h; in [5], 160 µg/kg. The antithrombotic activity result in [2] (continuous perfusion in rabbits, compared with rHV2 and heparin) is “superior to those of rHV2 and heparin”. In addition, in the series with thrombin [3] (expected values), the “specific antithrombin activity, results expected for human thrombin” value was 16,000 ATU/mg. Moreover, the “specific antithrombin activity for human thrombin” value in the series with thrombin [3] (stock solution 1 mg/ml in physiological saline) is 19,000 ATU/mg. In the series with thrombin [3] (summary value of the text, identical for the human and bovine thrombins), the specific antithrombin activity is listed as ~19,000 ATU/mg. In the series with bovine thrombin, the “specific antithrombin activity for bovine thrombin” value is given as 19,200 ATU/mg. The “inhibitory effect of crude supernatants with respect to thrombin activity” value in the series with thrombin [4] was “at least equal to that of native HV2”. For the same molecule, in series [6], the “further neutralizing the traces of residual thrombin” value is reported as “more effective”. Also, the risk of hemorrhage entry in the series on hemorrhage in rabbits is “less than those in animals treated with standard heparin”. Besides, the “prolongation of the bleeding time” value with bleeding time in rats is on record as “less than those in animals treated with standard heparin”. Moreover, the “Quantity for attaining 95% inhibition of thrombin” value with thrombin [7] (human thrombin 5.5×10^-9 M, PIPES pH 7.9, 37° C., chromozyme PL, 2 min preincubation) was 7.6 10^-9 M. Moreover, the “fold less hirudin than HV2 required for inhibiting the same quantity of human thrombin” value in the series with thrombin [7] (relative to hirudin HV2) is “approximately 4 fold”.
